Here are results for one molecule from US20230364228A1.

Usually EC50 stands for the midpoint of the concentration-response curve. The low end stands for an effect from little substance, the high end for a need for much substance.

For assay [1], the target named is highest binding amyloid (in vitro). In words: in vitro binding to amyloid, format not stated.
The target is the same in assay [2]. As to the kind of experiment: calculated from in vitro binding to amyloid, format not stated.

B1: antibody having a heavy chain variable domain (VH) of SEQ ID NO:1 and a light chain variable domain (VL) of SEQ ID NO:2 (CAEL101) (antibody, IgG1, V domains shown)
VH: QVQLKESGPGLVAPSQSLSITCTVSGFSLSSYGVSWVRQPPGKGLEWLGVIWGDGSTNYHPNLMSRLSISKDISKSQVLFKLNSLQTDDTATYYCVTLDYWGQGTSVTVSS
VL: DVVMTQTPLSLPVSLGDQASISCRSSQSLVHRNGNTYLHWYLQKPGQSPKLLIYKVSNRFSGVPDRFSGSGSGTDFTLKISRVEAEDLGLYFCFQTTYVPNTFGGGTKLEIK
Molecule B1 came in with an EC50 in assay [1] of 157 µg/mL. Moreover, the Michaelis-Menton (MM) EC 90 (calculated) in assay [2] was 36.5 µg/mL.
